# B1: Ydj1 (Hsp40) (natural protein)
# chain: MVKETKFYDILGVPVTATDVEIKKAYRKCALKYHPDKNPSEEAAEKFKEASAAYEILSDPEKRDIYDQFGEDGLSGAGGAGGFPGGGFGFGDDIFSQFFGAGGAQRPRGPQRGKDIKHEISASLEELYKGRTAKLALNKQILCKECEGRGGKKGAVKKCTSCNGQGIKFVTRQMGPMIQRFQTECDVCHGTGDIIDPKDRCKSCNGKKVENERKILEVHVEPGMKDGQRIVFKGEADQAPDVIPGDVVFIVSERPHKSFKRDGDDLVYEAEIDLLTAIAGGEFALEHVSGDWLKVGIVPGEVIAPGMRKVIEGKGMPIPKYGGYGNLIIKFTIKFPENHFTSEENLKKLEEILPPRIVPAIPKKATVDECVLADFDPAKYNRTRASRGGANYDSDEEEQGGEGVQCASQ
# Target: Ssa1 (Hsp70) (Saccharomyces cerevisiae, UniProt P10591 1-642)
# Assay: cross-linking
# Sequence of Ssa1 (Hsp70) (P10591 whole entry): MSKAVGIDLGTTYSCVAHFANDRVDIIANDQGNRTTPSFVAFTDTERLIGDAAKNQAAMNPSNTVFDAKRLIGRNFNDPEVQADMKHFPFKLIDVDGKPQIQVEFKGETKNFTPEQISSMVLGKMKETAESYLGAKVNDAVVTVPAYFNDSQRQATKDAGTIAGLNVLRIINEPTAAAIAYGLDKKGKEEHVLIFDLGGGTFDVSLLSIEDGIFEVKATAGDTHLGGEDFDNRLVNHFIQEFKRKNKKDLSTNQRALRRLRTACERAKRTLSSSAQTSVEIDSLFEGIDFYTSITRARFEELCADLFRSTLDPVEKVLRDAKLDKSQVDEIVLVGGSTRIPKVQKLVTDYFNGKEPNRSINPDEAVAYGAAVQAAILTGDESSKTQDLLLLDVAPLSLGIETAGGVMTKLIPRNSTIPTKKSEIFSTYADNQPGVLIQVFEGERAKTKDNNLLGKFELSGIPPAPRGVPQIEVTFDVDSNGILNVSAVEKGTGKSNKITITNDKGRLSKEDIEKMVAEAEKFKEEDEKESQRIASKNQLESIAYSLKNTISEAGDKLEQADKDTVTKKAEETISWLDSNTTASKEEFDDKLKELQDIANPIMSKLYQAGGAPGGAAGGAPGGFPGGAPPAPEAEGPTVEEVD
binder,measurement,value
B1,binding result,binds
